# Patent publication US7718626B2, “ErbB3 binding protein compositions and methods of use” (University of Maryland, Baltimore, priority 2005, dated 2010)
# Key:
# LNCaP cells [1] = test: Growth in steroid-reduced medium with DHT and/or bicalutamide; assay type: cell-based, human; conditions: ebp1 transfectants (vector controls approximately 70%)
# Experimental: Cell Growth Assays: To measure growth in complete media, cells (2×10^4) were seeded in triplicate in individual wells of 12-well tissue culture plates in RPMI-1640 with 10% FBS and cultured for the indicated number of days. Cells were trypsinized, stained with Trypan Blue (0.4%), and counted in a hemacytometer. […] Colonies were counted after 10 days of incubation. For studies assessing the effect of dihydrotestosterone (DHT) on cell growth, cells (2×10^4) were plated in 12-well plates in complete media. After a 24-hour attachment period, the medium was replaced with steroid-free medium [phenol red-free RPMI 1640 and 5% charcoal-stripped FBS (Sigma)] for 48 hours. The final concentration of testosterone in the steroid-reduced media was less than 5 pM. After 48 hours of steroid depletion, cells were re-fed with fresh steroid-reduced medium with or without the indicated concentrations of DHT and/or bicalutamide (10 μM), and total cell numbers were assessed 7 days later.
# LNCaP xenografts = test: LNCaP xenograft tumorigenicity in SCID mice; assay type: in vivo
# Experimental: In Vivo Studies in SCID Mice: Male SCID mice, 4-6 weeks of age, were purchased from the National Cancer Institute (Frederick, Md.). Animals were housed in a pathogen-free environment under controlled conditions of light and humidity and received food and water ad libitum. LNCaP cells were grown in complete medium and 800 μg/ml of G418 until 80% confluent. Cells were scraped into phosphate-buffered saline (PBS), collected by centrifugation, and suspended in Matrigel (10 mg/ml) (Collaborative Research, Waltham, Mass.) at 1×10^7 cells/ml. Each mouse received s.c. injections at one site on each flank with 100 μl of cell suspension. Tumors were measured three times a week with calipers, and tumor volumes were calculated by the formula 0.5236×r1^2×r2 (r1<r2). The animal protocols were approved by the Institutional Animal Care and Use Committee at the University of Maryland.
# After sacrifice, tumors were excised and fixed in 10% buffered neutral formalin. Sections of formalin-fixed, paraffin-embedded tissues were cut to 5 μm. Slides were stained with an Ebp1 antibody (Upstate) diluted 1:50 using the standard avidin-biotin method (Vector Labs, Burlinghame, Calif.). Peroxidase activity was localized by the diaminobenzidine tetrachloride peroxidase reaction with Harris hematoxylin as a counterstain.
# Ebp1 expression suppresses growth of prostate cancer xenografts: The effect of ectopic expression of ebp1 on the tumorigenicity of LNCaP cells was examined. Ebp1- and vector-transfected cells were injected subcutaneously into SCID mice, and tumor growth was monitored. Tumor growth was first noted in both groups at day 20. […] At the end of the study, tumors had developed at more than 85% of the sites injected with the vector control cells, while less than 40% of sites inoculated with ebp1 transfectants developed tumors. This difference was significant at p=0.04 by Fisher's exact test, two-sided. […] Average tumor volumes observed at the end of the study were 268±70 mm^3 as compared with 1214±168 mm^3 for the vector controls (p=0.0003). In addition, the growth rate was also slower for ebp1 transfectants at all time points measured (p=0.0001). […] Thus, cells that grew to form tumors had lost overexpression of the transgene.
# [2] = test system: secreted PSA of LNCaP cells; test: PSA secretion in conditioned media by ELISA; assay type: cell-based, human; conditions: ebp1 transfectants vs controls
# Experimental: Measurement of PSA levels: Serum PSA levels were determined using a PSA ELISA kit from DSL, Inc (Webster, Tex.). […] Following a 1 h incubation and extensive washing of the plate, the wells were treated for 30 min with a second anti-PSA antibody labeled with horseradish peroxidase. After washing, the wells were treated with a tetramethylbendizine substrate for 10 min, and absorbance was read at 450 nm. The results of the microarray analysis were validated using real-time quantitative reverse-transcription PCR, Western blot, and ELISA methods. […] The expression of POV-1 mRNA and protein were each decreased about two-fold. PSA secretion in the conditioned media of ebp1 and vector control cells was assessed by ELISA. […] Finally, […]-2 mRNA expression was decreased approximately 40%.
# [3] = test system: AR and POV-1 protein in LNCaP cells; test: Western blot analysis of LNCaP ebp1 transfectants; assay type: cell-based, human
# Experimental: Western Blot Analysis: Briefly, total cell extracts were prepared by direct lysis of cells with buffer containing 50 mM Tris-HCl (pH 7.4), 1 mM EDTA, 250 mM NaCl, 1% Triton X-100, 0.5 mM dithiothreitol (DTT) and 1 mM phenylmethylsulfonyl (PMSF). Protein concentrations were measured using a detergent compatible kit (BioRad, Hercules, Calif.). Proteins were resolved by SDS-PAGE and analyzed by Western blotting as described (Xia et al., 2001, Analysis of the Expression Pattern of Ebp1, an ErbB-3-Binding Protein, Biochem. Biophys. Res. Commun., 289:240-244). The AR antibody was from Santa Cruz Biotechnology (Santa Cruz, Calif.), the Ebp1 antibody from Upstate (Lake Placid, N.Y.), the polyclonal antibody to actin from Sigma (St. Louis, Mo.), and the POV-1 antibody was a gift of Dr. Rodrigo Chugai, National Cancer Institute. The results of the microarray analysis were validated using real-time quantitative reverse-transcription PCR, Western blot, and ELISA methods. […] The expression of POV-1 mRNA and protein were each decreased about two-fold. PSA secretion in the conditioned media of ebp1 and vector control cells was assessed by ELISA. […] Finally, […]-2 mRNA expression was decreased approximately 40%.
# LNCaP cells [4] = test: Soft agar colony growth assay; assay type: cell-based, human; conditions: highest cell concentration tested, ten days
# Experimental: Cell Growth Assays: To measure growth in complete media, cells (2×10^4) were seeded in triplicate in individual wells of 12-well tissue culture plates in RPMI-1640 with 10% FBS and cultured for the indicated number of days. Cells were trypsinized, stained with Trypan Blue (0.4%), and counted in a hemacytometer. For soft agar growth assays, increasing concentrations of cells (as indicated) were plated in 35 mm petri dishes in complete media and 0.3% Difco Bacto Agar over an 0.5% agar layer. Colonies were counted after 10 days of incubation. For studies assessing the effect of dihydrotestosterone (DHT) on cell growth, cells (2×10^4) were plated in 12-well plates in complete media. After a 24-hour attachment period, the medium was replaced with steroid-free medium [phenol red-free RPMI 1640 and 5% charcoal-stripped FBS (Sigma)] for 48 hours. The final concentration of testosterone in the steroid-reduced media was less than 5 pM. After 48 hours of steroid depletion, cells were re-fed with fresh steroid-reduced medium with or without the indicated concentrations of DHT and/or bicalutamide (10 μM), and total cell numbers were assessed 7 days later.
# The soft agar growth of ebp1 transfectants was also examined. LNCaP vector controls and ebp1 transfectants were seeded at concentrations between 1×10^4 and 1×10^5 cells per dish and colony growth in soft agar assessed ten days later. […]
molecule,measurement,setting,value
"Ebp1: ErbB3 binding protein (SEQ ID NO: 2), tested by stable ectopic expression (ebp1 transfection) in LNCaP cells (protein, Homo Sapien) MSGEDEQQEQTIAEDLVVTKYKMGGDIANRVLRSLVEASSSGVSVLSLCEKGDAMIMEETGKIFKKEKEMKKGIAFPTSISVNNCVCHFSPLKSDQDYILKEGDLVKIDLGVHVDGFIANVAHTFVVDVAQGTQVTGRKADVIKAAHLCAEAALRLVKPGNQNTQVTEAWNKVAHSFNCTPIEGMLSHQLKQHVIDGEKTIIQNPTDQQKKDHEKAEFEVHEVYAVDVLVSSGEGKAKDAGQRTTIYKRDPSKQYGLKMKTSRAFFSEVERRFDAMPFTLRAFEDEKKARMGVVECAKHELLQPFNVLYEKEGEFVAQFKFTVLLMPNGPMRITSGPFEPDLYKSEMEVQDAELKALLQSSASRKTQKKKKKKASKTAENPTSGETLEENEAGD",growth inhibition by the withdrawal of androgens,LNCaP cells [1],60%
same,tumor growth rate,"LNCaP xenografts; all time points measured, vs vector controls, p=0.0001",slower
same,inoculation sites with tumors,"LNCaP xenografts; day 20, s.c. in SCID mice (vector controls 35%)",10%
same,inoculation sites that developed tumors,"LNCaP xenografts; end of the study (vector control more than 85%), p=0.04",less than 40%
same,average tumor volume,"LNCaP xenografts; end of the study (vector controls 1214±168 mm^3), p=0.0003",268±70 mm^3
same,secreted PSA protein downregulation,[2],10 fold
same,AR protein decrease,"[3]; Western blot, LNCaP ebp1 transfectants",more than five-fold
same,POV-1 protein decrease,[3]; ebp1 transfectants,about two-fold
same,decrease of colony growth in soft agar,LNCaP cells [4],approximately 90%
